Experiment [1] has as its target T1, human fibroblast activation protein (huFAP) on cells (human, UniProt Q12884 1-760).
T1 construct: also called NIH/3T3-huFAP clone 39; NIH/3T3-huFAP clone 19
As to the kind of experiment: flow cytometry, NIH/3T3-huFAP clone 39 cells.

Experiment [2] addresses T2, recombinant human OX40 His (human).
T2 construct: ectodomain with avi and hexahistidine tag; also called human Ox40 avi His
T2 chain: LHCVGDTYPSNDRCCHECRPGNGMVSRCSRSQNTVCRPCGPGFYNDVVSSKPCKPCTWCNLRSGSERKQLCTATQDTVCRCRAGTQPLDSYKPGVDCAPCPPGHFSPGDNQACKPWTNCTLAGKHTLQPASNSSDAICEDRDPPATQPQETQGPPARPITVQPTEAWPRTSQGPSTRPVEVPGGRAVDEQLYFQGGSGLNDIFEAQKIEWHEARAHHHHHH
Kind of experiment: SPR, captured IgG, OX40 His analyte. A general note: Surface plasmon resonance follows binding to a sensor surface in real time, without labels.
Description: (§1) All SPR experiments were performed on a Biacore T200 at 25° C. with HBS-EP as running buffer (0.01 M HEPES pH 7.4, 0.15 M NaCl, 3 mM EDTA, 0.005% Surfactant P20, Biacore, Freiburg/Germany).
Setup 2) Anti-human Fc antibody (Biacore, Freiburg/Germany) was directly coupled on a CM5 chip at pH 5.0 using the standard amine coupling kit (Biacore, Freiburg/Germany). The immobilization level was approximately 8000 RU. […] The dissociation was monitored for 120 seconds. Bulk refractive index differences were corrected for by subtracting the response obtained on reference flow cell.

Experiment [3] concerns the target T3, human OX40 on cells (human, UniProt P43489 29-277).
T3 sequence: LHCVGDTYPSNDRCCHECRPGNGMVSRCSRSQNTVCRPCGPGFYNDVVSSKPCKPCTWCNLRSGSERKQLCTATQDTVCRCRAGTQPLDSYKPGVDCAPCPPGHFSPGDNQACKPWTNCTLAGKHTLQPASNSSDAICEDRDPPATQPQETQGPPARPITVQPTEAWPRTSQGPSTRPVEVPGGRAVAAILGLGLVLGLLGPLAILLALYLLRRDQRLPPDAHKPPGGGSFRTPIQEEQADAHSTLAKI
As to the kind of experiment: cell-based or functional assay.

Experiment [4] concerns the target recombinant cynomolgus OX40 Fc(kih) (cynomolgus, UniProt P0DOX5 223-449 = IgG part, biotin on C-terminal Avi tag where used biotinylated). Kind of experiment: SPR avidity format, antigen on SA chip.
Description: as §1
Immobilization levels up to 800 resonance units (RU) were used.
The target in experiment [5] is T4, cynomolgus OX40 on activated cynomolgus PBMC (cynomolgus, UniProt P43489 29-214 (human entry)).
T4 construct: whole, on cells
T4 chain: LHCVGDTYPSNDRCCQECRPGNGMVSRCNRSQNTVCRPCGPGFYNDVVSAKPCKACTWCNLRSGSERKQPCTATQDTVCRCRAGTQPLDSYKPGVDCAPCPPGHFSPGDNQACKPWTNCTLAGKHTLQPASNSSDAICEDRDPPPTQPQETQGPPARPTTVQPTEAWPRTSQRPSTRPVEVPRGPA
As to the kind of experiment: flow cytometry, activated cynomolgus CD4 T cells. On the technique in general: A flow cytometer gives signals particle by particle.
Description: Centrifugation was performed at 520×g, without brake at room temperature for 30 minutes. Adjacent centrifugation at 150×g at room temperature for 15 minutes was performed to reduce platelets count followed by several centrifugation steps with 400×g at room temperature for 10 minutes to wash PBMC with sterile DPBS.
Then, plates were washed four times with 200 μL/well 4° C. FACS buffer. […] Plates where washed twice with 200 μL/well 4° C.

In experiment [6] the target is T3, human OX40 on cells. As to the kind of experiment: cell-based or functional assay. The source holds these as a separate data set.
In experiment [7] the target is T5, recombinant cynomolgus GITR Fc(kih) (cynomolgus, UniProt P0DOX5 223-449 = IgG part, biotin on C-terminal Avi tag where used biotinylated).
T5 construct: also called cy GITR-Fc
Kind of experiment: SPR ProteOn XPR36, biotinylated GITR-Fc on NLC chip, Fab analyte.
Description: (§2) Immobilization of antigens (ligand): Recombinant antigens were diluted with PBST (10 mM phosphate, 150 mM sodium chloride pH 7.4, 0.005% Tween 20) to 10 μg/ml, then injected at 30 μl/minute in vertical orientation. Injection of analytes: For ‘one-shot kinetics’ measurements, injection direction was changed to horizontal orientation, two-fold dilution series of purified Fab were injected simultaneously along separate channels 1-5, with association times of 200 s, and dissociation times of 240 s, respectively. Buffer (PBST) was injected along the sixth channel to provide an “in-line” blank for referencing. Association rate constants (kon) and dissociation rate constants (koff) were calculated using a simple one-to-one Langmuir binding model in ProteOn Manager software by simultaneously fitting the association and dissociation sensorgrams. The equilibrium dissociation constant (KD) was calculated as the ratio koff/kon.

The target in experiment [8] is T6, recombinant human GITR Fc(kih) (human, UniProt P0DOX5 223-449 = IgG part, biotin on C-terminal Avi tag where used biotinylated).
T6 construct: also called hu GITR-Fc; human monomeric GITR-Fc fusion
The description is as above.
Description: as §2

The target in experiment [9] is T7, recombinant murine GITR Fc(kih) (murine, UniProt P0DOX5 223-449 = IgG part, biotin on C-terminal Avi tag).
T7 construct: also called mu GITR-Fc
Kind of experiment: SPR ProteOn XPR36, Fab as analyte.
Description: as §2

Positions count from the first letter of the chain named.

B1: 1G4 P329GLALA IgG1 (antibody, V domains shown)
VH: QVQLVQSGAEVKKPGSSVKVSCKASGGTFSSYAISWVRQAPGQGLEWMGGIIPIFGTANYAQKFQGRVTITADKSTSTAYMELSSLRSEDTAVYYCAREYGSMDYWGQGTTVTVSS
VL: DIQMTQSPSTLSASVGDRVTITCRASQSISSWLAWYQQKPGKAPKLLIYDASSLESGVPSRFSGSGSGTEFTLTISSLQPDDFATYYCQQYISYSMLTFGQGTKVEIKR
notes: anti-OX40
For orientation: Kd means the constant that tells how readily two partners part at equilibrium. As usually defined, the koff is the rate constant with which the complex falls apart. What is called kon is the second-order rate constant of association. The term EC50 denotes the concentration giving half of the maximal effect. Turning to B1, in experiment [1], the binding result is “no binding”. Also, in [2], the Kd turned out to be 250 nM, the koff is 0.57 s⁻¹ and the kon was found to be 2.3e+06 M⁻¹ s⁻¹. Besides, the “EC50 of rescuing suboptimal TCR stimulation with plate-immobilized anti-OX40 binder (preactivated human CD4 T cells)” value in experiment [3] came out at 0.697 nM. In addition, in experiment [4], the binding result was “binds”. The molecule further displayed an EC50 in [5] of 48.2 nM. In addition, in [6], the “EC50 of NFκB activation in HeLa_hOx40_NFκB_luc1 reporter cells with secondary anti-human IgG Fcγ antibody” value is 3.59 nM.

B2: clone 8A06 purified Fab (Fab, V domains shown)
VH: B1 VH with E99G, G101Y, S102A, M103I
VL: SSELTQDPAVSVALGQTVRITCQGDSLRSYYASWYQQKPGQAPVLVIYGKNNRPSGIPDRFSGSSSGNTASLTITGAQAEDEADYYCNSPQTSGSAVFGGGTKLTVL
notes: bacterially expressed Fab of the lambda-DP88 library with CH1/CL and tags; also called 8A06 (Fab-format)
In the case of B2, the results for the Kd in experiment [7] and in [8] were 67 nM and 4.4 nM, respectively. The binding result in [9] is “no binding”.
